# Measurements from the supplement of paper PMC12042874.
# ± gives the uncertainty stated by the source.
# Assay: amyloid nucleation score (Sup35N fusion, yeast selection) (log enrichment); library NNK3; higher = more nucleation; inactive = no reads after selection
# Procedure, shortened: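 In psi-negative yeast, Sup35N fusions carrying peptides of 20 random codons were induced with 100 μM copper sulfate for 24 hours. The cells then grew 7 days at 30°C on medium lacking adenine and uracil, and plasmid inserts from input and output were Illumina-sequenced, excluding sequences with under 100 input reads. Nucleation score is the DiMSum log enrichment of output over input reads, centred on the mode score of non-aggregating sequences.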
row,Substance,amyloid nucleation score
1,TGLLLIRIKGH,inactive
2,GSYSGM,inactive
3,STSVSLTWNPKKRLYYLLTI,inactive
4,IDSAEASCIGCLVRQCADPI,inactive
5,EWFCLCWT,inactive
6,TLNRLDSHGSFFRMNVREGV,inactive
7,CACIPNFPCKSYHYWRSCNI,inactive
8,YLYRFLPVQTRPLMHATSYI,inactive
9,FIHMCISFSGYFYDYCFNFN,inactive
10,VVGFDSCGRWEVNVSYDSGT,inactive
11,GRCMEGS,inactive
12,WRVSLWLGWNLFWTCSNPAD,inactive
13,RPYGSEVVIFMSVSRKPPPA,0.661 ± 0.14
14,TKKLKIPYFANFYTRFRHFK,inactive
15,ICWLVMEVLG,inactive
16,ASTLLHYCLLNSGYEWSGQC,0.251 ± 0.81
17,KYNHIYVYKSIRCVQGVLDG,inactive
18,LYITMRNVF,inactive
19,YCFVPRIMYMVCQYCVLTND,inactive
20,VLGDMVYGGHAL,inactive
21,MRNVVSSISRCFDMKAVQQR,inactive
22,HVAGTCAQLTLFKDIGLTYK,inactive
23,YKEMVHRSG,inactive
24,HLRLYCHPMNFRWHRRYYEP,0.249 ± 0.4

row,Substance,amyloid nucleation score
1,AHKIVFELTYTVLS,inactive
2,MSYMMSSTPSVFMACLGDS,inactive
3,AYCGACFNLSAYTSKCLELM,inactive
4,LHMCNS,inactive
5,TDRVNFSRLFSLIHDWLTPG,inactive
6,DWLMPIFQVNIEMLWLSWLW,inactive
7,RTMAFLIFS,0.172 ± 0.56
8,MICRSSGFLYGCSWFGILYL,inactive
9,DFLYRGMNGSGFPLCIYQRC,inactive
10,ISRSVIIDSQRGLCCQTWDW,inactive
11,QQFVTFVIFKYTVSVAMGAG,-0.478 ± 0.88
12,SAYVLDGYMEISQILVIWSL,inactive
13,CDAAWPVNSPFWYLFLWC,inactive
14,SASEKTDSNVVEFCVGRCI,inactive
15,LESSVMLLKRRIILVLCLHG,inactive
16,VMCVFLLYI,1.08 ± 0.11
17,RFRNYGLSGR,-0.38 ± 0.89
18,CRKEYIFYLFHIIMSQARNI,inactive
19,SCQKIALIWIRLTTDMRRRC,inactive
20,ISFYKGYLKFNL,inactive
21,WEILYPEGWFWTFRRSGVGS,inactive
22,KIIRMF,inactive
23,YEDAAILDVCDPQIELLLHQ,inactive
24,SVTLRATGSGNRRYDAIRNY,inactive

row,Substance,amyloid nucleation score
1,FSIPPFTRTCLKNGLHYSVR,-0.759 ± 0.88
2,IMEEFVTIFDYLQMAMFTRR,inactive
3,RYRSGLDPFRCSYFNSPFYS,inactive
4,HFPTCWVGYVKHAVLRYLIY,inactive
5,DTNGMMRAMLRYPIIRFLYA,-0.402 ± 0.63
6,LFGFQNDCYMDNRYW,inactive
7,DWVMADRMSPVKIMYATSSG,inactive
8,TVQNVLCHCMMSNMAYWGHQ,2.63 ± 0.082
9,HGRLLYVSYISDMINASYGQ,inactive
10,STWYSRCVLALNLLLSCNRG,1.38 ± 0.13
11,RHGFALRLVHSSL,inactive
12,YCDSCLNDFLVWYF,inactive
13,LCWPGTVDWFQGWRKAG,inactive
14,VNLHLTVEQLSMLYRTNANV,1.07 ± 0.14
15,LPALEQNVLHLVMVIY,inactive
16,TNWDKNYYSCYIIKGLRWER,inactive
17,PAERYKRSSLAKSYRLNYRS,inactive
18,KGVGHSTLTIIFLLSALRFS,1.02 ± 0.14
19,YHSSVCTDVIYGTTYWGCAV,inactive
20,VFFYSDHVLCVYFVSLYSFS,0.386 ± 0.42
21,WRKTRGLNILRLWSLVSFRM,inactive
22,YYALKYVNLQLNKRNVTRWV,inactive
23,LARVFASTGSSCSRSMNAMN,inactive
24,TGCGQFH,inactive

row,Substance,amyloid nucleation score
1,SSSKMW,inactive
2,WKYRMTQRPQMVNWNVLRYE,inactive
3,HGKVGKRFRLGQKAYVSGLW,inactive
4,LTKYRGPQDVRNAFSCSNIM,inactive
5,RKLNNTSTSHGICVGAWITN,inactive
6,GESAKDVFGSLCRRLISIQL,inactive
7,WCPSSSM,inactive
8,PYPESVFQWFEYIPFYCSVR,inactive
9,TFAMGLSARSISYCTNTRCP,0.464 ± 0.4
10,TCACIWGVSVWCYRSQVFAQ,-0.455 ± 0.52
11,NEIQVKQRYVPPVSVSFVWW,1.59 ± 0.086
12,MTSFIFDVFCSCSCLYQRPL,inactive
13,IGKRIFKLCVMYGYYLHLNF,inactive
14,KVYKLGVSRRSVKAT,inactive
15,GQHSRSLDTSACCPT,inactive
16,QLLSLKWYYVTRILCARYAD,inactive
17,SSYIESQELHSWAVQLRLLV,inactive
18,KGKITCM,inactive
19,LCLCVRFFKAFNRFNYRRFF,inactive
20,LSLISVSLG,inactive
21,HRDETGVHAVALSKSVWYKW,-1.07 ± 1.1
22,NVLCSFYLMYGLTSAWSVS,inactive
23,GFTVMDPIV,inactive
24,GICHSSRCWGTSENGNWLRI,inactive

row,Substance,amyloid nucleation score
1,SICGKSSCMCVTNVSPLDSQ,0.304 ± 0.21
2,SRQLQPYYSVFRCLVRGSIK,inactive
3,IVMVIAAGWFN,0.633 ± 0.2
4,FYSLWRNRYNNSNQEWDIRW,inactive
5,VGSAGVSVFVWRVCRFCEGN,-0.434 ± 1.1
6,YFCFVLFYLN,2.04 ± 0.07
7,ILVWNLYLT,2.54 ± 0.053
8,RCFIDLCFLDIIISFRYY,inactive
9,GKKLDMYHIRHSRW,inactive
10,ENCAWSRIIRRFNECNTLV,inactive
11,TSSFVKSFRCYSAIG,inactive
12,IAFTNLVKVCGLTGYA,inactive
13,SHVQWPDAFFYRTSFGQLLS,inactive
14,LFYMLPIIVFAPVLMAWLSF,inactive
15,LEVWSRRYWCHRLFNSIAMM,inactive
16,GYESLYRQHLYDSSLCWESR,inactive
17,FMPHARASQQLPGGSHFLNL,inactive
18,CGTCLRMVKVTRSDV,inactive
19,VRGQFSSSVLGRCLGWAWTR,inactive
20,AAYADR,0.008 ± 0.48
